Source: IntAct's records for PubMed 18378898

B1: Growth/differentiation factor 11 (Mus musculus), Q9Z1W4 (parent)
chain: MVLAAPLLLGFLLLALELRPRGEAAEGPAAAAAAAAAAAGVGGERSSRPAPSAPPEPDGCPVCVWRQHSRELRLESIKSQILSKLRLKEAPNISREVVKQLLPKAPPLQQILDLHDFQGDALQPEDFLEEDEYHATTETVISMAQETDPAVQTDGSPLCCHFHFSPKVMFTKVLKAQLWVYLRPVPRPATVYLQILRLKPLTGEGTAGGGGGGRRHIRIRSLKIELHSRSGHWQSIDFKQVLHSWFRQPQSNWGIEINAFDPSGTDLAVTSLGPGAEGLHPFMELRVLENTKRSRRNLGLDCDEHSSESRCCRYPLTVDFEAFGWDWIIAPKRYKANYCSGQCEYMFMQKYPHTHLVQQANPRGSAGPCCTPTKMSPINMLYFNDKQQIIYGKIPGMVVDRCGCS
B2: Growth/differentiation factor 11 (Mus musculus), Q9Z1W4 (parent)
chain: B1 chain
partner: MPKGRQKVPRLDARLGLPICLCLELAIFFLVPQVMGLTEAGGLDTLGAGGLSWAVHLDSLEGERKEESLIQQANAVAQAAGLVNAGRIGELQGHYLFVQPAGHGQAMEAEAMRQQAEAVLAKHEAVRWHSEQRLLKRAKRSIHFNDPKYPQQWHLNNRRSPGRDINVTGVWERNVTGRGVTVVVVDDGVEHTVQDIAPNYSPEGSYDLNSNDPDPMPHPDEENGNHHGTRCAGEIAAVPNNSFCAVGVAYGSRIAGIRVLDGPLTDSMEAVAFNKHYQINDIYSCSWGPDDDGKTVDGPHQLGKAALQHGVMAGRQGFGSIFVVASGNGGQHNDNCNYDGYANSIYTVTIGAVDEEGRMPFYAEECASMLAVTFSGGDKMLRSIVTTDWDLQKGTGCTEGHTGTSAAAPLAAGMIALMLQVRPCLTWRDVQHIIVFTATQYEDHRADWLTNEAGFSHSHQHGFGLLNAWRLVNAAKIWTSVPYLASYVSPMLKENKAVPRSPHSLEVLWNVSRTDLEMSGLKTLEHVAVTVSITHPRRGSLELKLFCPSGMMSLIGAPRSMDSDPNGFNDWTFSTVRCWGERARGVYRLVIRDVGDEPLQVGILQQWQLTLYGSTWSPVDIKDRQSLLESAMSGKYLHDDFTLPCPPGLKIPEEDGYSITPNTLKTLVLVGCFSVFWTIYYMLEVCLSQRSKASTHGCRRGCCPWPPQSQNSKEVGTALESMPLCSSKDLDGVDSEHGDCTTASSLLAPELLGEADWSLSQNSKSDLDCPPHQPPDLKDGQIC
B3: Growth/differentiation factor 11 (Mus musculus), Q9Z1W4 (parent)
chain: B1 chain
partner: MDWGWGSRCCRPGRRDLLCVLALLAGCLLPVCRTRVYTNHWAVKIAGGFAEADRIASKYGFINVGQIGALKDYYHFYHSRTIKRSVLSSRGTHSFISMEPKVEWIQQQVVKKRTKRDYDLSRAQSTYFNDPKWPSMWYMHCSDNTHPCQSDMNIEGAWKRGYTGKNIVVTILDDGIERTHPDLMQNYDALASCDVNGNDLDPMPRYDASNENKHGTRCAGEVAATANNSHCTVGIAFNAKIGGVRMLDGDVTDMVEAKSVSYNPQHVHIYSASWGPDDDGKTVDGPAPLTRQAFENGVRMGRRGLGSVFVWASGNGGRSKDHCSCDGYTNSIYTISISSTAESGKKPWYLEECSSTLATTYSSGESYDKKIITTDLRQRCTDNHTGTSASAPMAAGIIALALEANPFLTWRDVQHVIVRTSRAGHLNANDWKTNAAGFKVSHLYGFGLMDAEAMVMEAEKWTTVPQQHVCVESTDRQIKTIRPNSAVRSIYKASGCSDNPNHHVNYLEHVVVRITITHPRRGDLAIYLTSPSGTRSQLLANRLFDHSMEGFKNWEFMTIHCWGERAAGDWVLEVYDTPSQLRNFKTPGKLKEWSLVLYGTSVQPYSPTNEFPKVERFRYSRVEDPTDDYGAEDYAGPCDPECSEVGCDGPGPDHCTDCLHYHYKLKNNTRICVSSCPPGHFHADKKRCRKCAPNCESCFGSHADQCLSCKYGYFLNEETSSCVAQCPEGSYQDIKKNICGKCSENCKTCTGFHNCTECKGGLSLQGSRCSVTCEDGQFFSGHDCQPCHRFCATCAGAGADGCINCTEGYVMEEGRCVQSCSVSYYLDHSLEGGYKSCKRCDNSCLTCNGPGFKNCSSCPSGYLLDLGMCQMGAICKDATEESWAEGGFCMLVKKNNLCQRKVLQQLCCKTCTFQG
B4: Growth/differentiation factor 11 (Mus musculus), Q9Z1W4 (parent)
chain: B1 chain
partner: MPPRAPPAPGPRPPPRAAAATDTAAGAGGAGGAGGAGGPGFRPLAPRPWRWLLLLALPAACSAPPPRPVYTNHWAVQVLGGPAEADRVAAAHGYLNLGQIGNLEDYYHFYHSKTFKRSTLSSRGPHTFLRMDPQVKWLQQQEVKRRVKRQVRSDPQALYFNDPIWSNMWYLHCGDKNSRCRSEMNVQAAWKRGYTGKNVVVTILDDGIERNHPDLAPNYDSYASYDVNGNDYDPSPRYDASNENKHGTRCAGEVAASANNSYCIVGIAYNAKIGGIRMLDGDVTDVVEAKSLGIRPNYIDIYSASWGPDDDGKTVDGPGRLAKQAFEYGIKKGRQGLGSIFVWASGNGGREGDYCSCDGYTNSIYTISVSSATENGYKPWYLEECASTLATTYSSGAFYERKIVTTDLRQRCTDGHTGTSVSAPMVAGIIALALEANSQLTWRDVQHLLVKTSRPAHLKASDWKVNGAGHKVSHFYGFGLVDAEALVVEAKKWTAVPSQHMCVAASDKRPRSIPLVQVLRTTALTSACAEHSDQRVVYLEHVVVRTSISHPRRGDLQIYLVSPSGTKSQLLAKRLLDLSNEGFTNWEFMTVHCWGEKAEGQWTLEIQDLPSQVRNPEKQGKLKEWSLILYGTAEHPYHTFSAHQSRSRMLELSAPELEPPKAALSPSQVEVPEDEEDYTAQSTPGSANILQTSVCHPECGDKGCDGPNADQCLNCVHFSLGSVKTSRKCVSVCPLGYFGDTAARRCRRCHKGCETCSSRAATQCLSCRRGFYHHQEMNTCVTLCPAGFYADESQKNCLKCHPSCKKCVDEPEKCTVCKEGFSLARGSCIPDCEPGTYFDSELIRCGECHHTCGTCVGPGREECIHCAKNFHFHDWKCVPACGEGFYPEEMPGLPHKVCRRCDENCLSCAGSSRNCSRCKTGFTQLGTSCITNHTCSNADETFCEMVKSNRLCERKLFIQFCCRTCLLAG

Variants of: B1
Details: with furin_human FURIN

Row | Variant | effect of a mutation on the interaction
1 | N297D | increasing interaction

Variants of: B2
Details: with pcsk7_rat Pcsk7, Q62849

Row | Variant | effect of a mutation on the interaction
2 | N297D | increasing interaction

Variants of: B3
Details: with Pcsk5, P41413-2

Row | Variant | effect of a mutation on the interaction
3 | N297D | increasing interaction

Variants of: B4
Details: with PCSK6, P29122-1

Row | Variant | effect of a mutation on the interaction
4 | N297D | increasing interaction
